Drawing on paper PMC10811483, this text covers Kd for one substance.

Targets include Z-M_D37AzK; Z-M_H19AzK-PyOx; Z-M_H19AzK; Z-M_K33AzK-PyOx; Z-M_K33AzK; Z-M_M8AzK-PyOx; Z-M_M8AzK.
Experiment in all cases: SPR

trastuzumab WT (antibody): the Kd (commonly a measure of binding affinity in units of concentration) with Z-M_D37AzK came to 3.52 nM; in the test with Z-M_H19AzK-PyOx, 4.94 nM; with Z-M_H19AzK, 5.1 nM; in the test with Z-M_K33AzK-PyOx it was 3.48 nM; with Z-M_K33AzK, 4.85 nM; with Z-M_M8AzK-PyOx it was 5.02 nM. In the test with Z-M_M8AzK, this substance returned a Kd of 3.94 nM.
